Experimental data reported in patent US20080051336A1 (Janssen / Centocor, published 2008).
Read-outs that look alike come from different tables or passages of the source. Ends that are not written are not given here.

T1: human GPCR135 (human, UniProt Q9NSD7 1-469)
T1 sequence: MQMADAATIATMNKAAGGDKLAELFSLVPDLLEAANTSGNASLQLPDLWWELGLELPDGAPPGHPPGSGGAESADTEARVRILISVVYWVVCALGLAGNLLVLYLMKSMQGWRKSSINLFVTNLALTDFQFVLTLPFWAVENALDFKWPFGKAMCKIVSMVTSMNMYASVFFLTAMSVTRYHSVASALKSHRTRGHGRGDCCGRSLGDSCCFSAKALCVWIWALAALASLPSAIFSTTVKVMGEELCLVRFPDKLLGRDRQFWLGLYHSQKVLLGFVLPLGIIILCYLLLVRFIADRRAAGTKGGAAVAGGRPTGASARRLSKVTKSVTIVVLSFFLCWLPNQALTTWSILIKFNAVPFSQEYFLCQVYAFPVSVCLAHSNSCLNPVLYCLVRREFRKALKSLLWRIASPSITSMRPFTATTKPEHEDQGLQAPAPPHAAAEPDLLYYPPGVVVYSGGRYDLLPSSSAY

T2: human LGR7 (human, UniProt Q9HBX9 1-757)
T2 sequence (looked up): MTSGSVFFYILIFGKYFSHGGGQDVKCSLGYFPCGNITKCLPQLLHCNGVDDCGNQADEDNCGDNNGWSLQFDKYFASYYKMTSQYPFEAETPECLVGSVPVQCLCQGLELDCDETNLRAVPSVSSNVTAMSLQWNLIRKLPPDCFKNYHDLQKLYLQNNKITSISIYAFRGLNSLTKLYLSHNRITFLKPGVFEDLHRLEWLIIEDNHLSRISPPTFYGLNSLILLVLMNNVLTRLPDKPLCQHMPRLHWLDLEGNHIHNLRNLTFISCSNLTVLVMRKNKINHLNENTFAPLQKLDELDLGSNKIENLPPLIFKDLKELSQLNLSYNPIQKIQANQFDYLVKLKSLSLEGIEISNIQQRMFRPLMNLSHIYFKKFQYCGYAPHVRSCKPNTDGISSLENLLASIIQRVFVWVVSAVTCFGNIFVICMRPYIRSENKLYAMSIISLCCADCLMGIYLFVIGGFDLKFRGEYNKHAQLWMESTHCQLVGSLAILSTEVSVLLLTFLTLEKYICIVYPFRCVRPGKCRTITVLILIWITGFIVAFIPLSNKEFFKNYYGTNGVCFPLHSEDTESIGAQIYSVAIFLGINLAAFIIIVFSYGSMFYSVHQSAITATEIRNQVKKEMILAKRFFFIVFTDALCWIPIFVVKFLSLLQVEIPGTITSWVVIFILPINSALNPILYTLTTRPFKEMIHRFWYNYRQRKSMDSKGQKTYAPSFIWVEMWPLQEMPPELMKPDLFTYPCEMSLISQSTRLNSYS

B1: human relaxin-3/INSL6 chimeric polypeptide (R3/I6), mature (ligand)
chain: RAAPYGVRLCGREFIRAVIFTCGGSRWGYSEKCCLTGCTKEELSIAC
modifications: disulfide (positions not given here); also: two chains (relaxin-3 B-chain, INSL6 A-chain), disulfide-linked, chain break not marked
notes: Mature two-chain peptide: human relaxin-3 B-chain disulfide-linked to human INSL6 A-chain; FLAG tag removed
B2: human relaxin-3/relaxin-1 chimeric polypeptide (R3/R1), mature (ligand)
chain: RAAPYGVRLCGREFIRAVIFTCGGSRWPYVALFEKCCLIGCTKRSLAKYC
modifications: disulfide (positions not given here); also: two chains (relaxin-3 B-chain, relaxin-1 A-chain), disulfide-linked, chain break not marked
notes: Mature two-chain peptide: human relaxin-3 B-chain disulfide-linked to human relaxin-1 A-chain; Made in COS-7 cells with furin; the FLAG tag was removed with enterokinase
B3: human relaxin-3/INSL3 chimeric polypeptide (R3/I3), mature (ligand)
chain: RAAPYGVRLCGREFIRAVIFTCGGSRWNPARYCCLSGCTQQDLLTLC
modifications: disulfide (positions not given here); also: two chains (relaxin-3 B-chain, INSL3 A-chain), disulfide-linked, chain break not marked
notes: Mature two-chain peptide: human relaxin-3 B-chain disulfide-linked to human INSL3 A-chain; FLAG tag removed
B4: human relaxin-3/relaxin-2 chimeric polypeptide (R3/R2), mature (ligand)
chain: RAAPYGVRLCGREFIRAVIFTCGGSRWQLYSALANKCCHVGCTKRSLARFC
modifications: disulfide (positions not given here); also: two-chain peptide (relaxin-3 B chain, relaxin-2 A chain), disulfide-linked, places not given here
notes: Mature two-chain peptide: human relaxin-3 B-chain disulfide-linked to human relaxin-2 A-chain; FLAG tag removed
B5: human INSL3 (ligand)
chain: PTPEMREKLCGHHFVRALVRVCGGPRWSTEANPARYCCLSGCTQQDLLTLC
modifications: ends and bridges not checked; also: 125I-labelled form used as tracer, site not given here

Key:
human GPCR135 [1] = target: T1, human GPCR135; experiment: cell-based or functional assay
human GPCR142 [2] = target: T3, human GPCR142 (human, UniProt Q8TDU9 1-374); experiment: cell-based or functional assay
T3 sequence (Q8TDU9 whole entry L329S): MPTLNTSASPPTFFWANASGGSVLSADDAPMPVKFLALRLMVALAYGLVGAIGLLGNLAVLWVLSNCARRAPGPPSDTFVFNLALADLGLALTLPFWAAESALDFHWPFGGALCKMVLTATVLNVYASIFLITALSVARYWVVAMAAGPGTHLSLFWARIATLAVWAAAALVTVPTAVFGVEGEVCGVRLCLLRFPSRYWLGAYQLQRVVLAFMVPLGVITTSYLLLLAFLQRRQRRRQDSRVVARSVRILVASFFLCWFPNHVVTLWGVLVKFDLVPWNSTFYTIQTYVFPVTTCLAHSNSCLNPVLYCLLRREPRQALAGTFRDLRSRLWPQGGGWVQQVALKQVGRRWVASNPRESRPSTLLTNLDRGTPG

human LGR7 [3] = target: T2, human LGR7; experiment: cell-based or functional assay
human LGR8 [4] = target: T4, human LGR8 (human, UniProt Q8WXD0 1-754); experiment: cell-based or functional assay
T4 sequence (Q8WXD0 whole entry): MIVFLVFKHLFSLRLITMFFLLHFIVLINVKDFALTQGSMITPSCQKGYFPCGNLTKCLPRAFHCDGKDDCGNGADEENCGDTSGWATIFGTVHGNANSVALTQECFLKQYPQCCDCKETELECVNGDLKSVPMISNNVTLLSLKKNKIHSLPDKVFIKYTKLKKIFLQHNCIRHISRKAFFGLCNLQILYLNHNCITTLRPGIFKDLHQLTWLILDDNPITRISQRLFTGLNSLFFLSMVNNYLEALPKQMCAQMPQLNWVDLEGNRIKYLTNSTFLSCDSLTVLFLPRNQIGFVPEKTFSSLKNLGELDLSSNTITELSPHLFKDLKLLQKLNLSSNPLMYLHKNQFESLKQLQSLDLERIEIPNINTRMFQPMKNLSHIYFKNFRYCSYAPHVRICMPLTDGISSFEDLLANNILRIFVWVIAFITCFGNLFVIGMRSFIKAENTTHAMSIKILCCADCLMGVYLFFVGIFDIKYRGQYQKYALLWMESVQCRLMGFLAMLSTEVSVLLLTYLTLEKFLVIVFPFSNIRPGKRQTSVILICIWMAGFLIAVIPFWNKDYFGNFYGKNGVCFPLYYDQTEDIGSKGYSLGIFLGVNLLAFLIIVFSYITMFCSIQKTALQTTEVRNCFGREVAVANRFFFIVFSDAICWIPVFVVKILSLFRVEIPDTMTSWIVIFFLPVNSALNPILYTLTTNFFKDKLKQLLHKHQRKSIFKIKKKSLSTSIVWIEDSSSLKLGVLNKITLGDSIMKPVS

human GPCR135 [5] = target: T1, human GPCR135; experiment: cell-based or functional assay; remark: listed apart in the source
human GPCR142 [6] = target: T3, human GPCR142; experiment: cell-based or functional assay; remark: listed apart in the source
human LGR7 [7] = target: T2, human LGR7; experiment: cell-based or functional assay; remark: listed apart in the source
human GPCR135 [8] = target: T1, human GPCR135; experiment: cell-based or functional assay; remark: listed apart in the source
human GPCR142 [9] = target: T3, human GPCR142; experiment: cell-based or functional assay; remark: listed apart in the source
human LGR7 [10] = target: T2, human LGR7; experiment: cell-based or functional assay; remark: listed apart in the source
human LGR7 [11] = target: T2, human LGR7; experiment: radioligand competition, live COS-7 cells with human LGR7
Method: (§1) Different unlabeled peptides were used in the binding assay as the competitors. […] Data represent mean±SEM (n=3).
(§2) Radioligand binding assays for LGR7 and LGR8 were performed using live COS-7 cells transiently transfected with LGR7 or LGR8 expression plasmids in 15-cm culture dishes using LipofectAmine (Invitrogen). Two days after transfection, the transfected cells were detached from the 15-cm culture dished using phosphate buffered saline (PBS) plus 10 mM EDTA, seeded into 96-well opaque poly-D-lysine coated culture plates and used for radioligand binding assays. […] [¹²⁵I]-labeled tracer was added in binding reactions at a final concentration of 100 pM in binding buffer containing DMEM plus 50 mM HEPES and 1% bovine serum albumin. […] The binding mixtures were incubated at room temperature for 1 hour. The unbound radioligand was removed by aspiration of the binding buffer. The cells were washed with PBS. The bound radioligand was counted in a scintillation counter (TopCount/NTX). The results were analyzed using Prism 3.0 program (Graphpad, San Diego, Calif.).

human LGR7 [12] = target: T2, human LGR7; experiment: competition with [125I]-relaxin-3 (100 pM), live COS-7 cells with human LGR7
Method: as §1, §2

human GPCR135 [13] = target: T1, human GPCR135; experiment: competition with [125I]-relaxin-3 (100 pM), COS-7 membranes with human GPCR135
Method: as §1
(§3) Peptides for competition binding studies were added to the binding mix (final volume: 200 μl) in binding buffer [50 mM Tris-HCl, pH 7.5, 5 mM EDTA, 1% bovine serum albumin, 0.1% protease inhibitor cocktails (Sigma)]. The binding mixtures were incubated at room temperature for 1 hour, filtered through GFC plates (Packard) pre-saturated with 0.3% Polyethylenimine (Sigma), and washed with cold washing buffer (50 mM Tris-HCl, pH 7.5, 5 mM EDTA).

human GPCR142 [14] = target: T3, human GPCR142; experiment: competition with [125I]-relaxin-3 (100 pM), COS-7 membranes with human GPCR142
Method: as §1, §3

human LGR8 [15] = target: T4, human LGR8; experiment: competition with [125I]-INSL3 (100 pM) on live COS-7 cells expressing human LGR8; ND denotes no activity was detected
Method: as §1, §2

human LGR8 [16] = target: T4, human LGR8; experiment: cell-based or functional assay; remark: listed apart in the source
human LGR8 [17] = target: T4, human LGR8; experiment: competition with [125I]-INSL3 (100 pM), live COS-7 cells with human LGR8
Method: as §1, §2

human LGR8 [18] = target: T4, human LGR8; experiment: cell-based or functional assay; remark: listed apart in the source
human LGR8 [19] = target: T4, human LGR8; experiment: competition with [125I]-INSL3, live COS-7 cells with human LGR8; this end tied to R3/I3 by Table 1
Method: as §1, §2

Row | Molecule | EC50, ligand stimulated β-galactosidase expression (human LGR7 [7]) | EC50, inhibition of forskolin stimulated β-galactosidase expression (human GPCR135 [8]) | EC50, inhibition of forskolin stimulated β-galactosidase expression (human GPCR142 [9]) | EC50, ligand stimulated β-galactosidase expression (human LGR7 [10]) | IC50 (human LGR7 [12]) | IC50 (human GPCR135 [13]) | IC50 (human GPCR142 [14]) | EC50, ligand stimulated β-galactosidase expression (human LGR8 [16]) | IC50 (human LGR8 [17]) | further results
1 | human relaxin-3 B-chain (from UniProt Q8WXF3 26-52) (peptide) |  |  |  |  |  |  |  |  |  | EC50, inhibition of forskolin-stimulated β-galactosidase activity (human GPCR135 [1]): 88 nM; EC50, inhibition of forskolin-stimulated β-galactosidase activity (human GPCR142 [2]): 125 nM
2 | porcine relaxin (from UniProt P01348 25-182) (ligand) |  |  |  |  |  |  |  |  |  | EC50, stimulation of β-galactosidase activity (human LGR7 [3]): 0.25 nM; EC50, induction of β-galactosidase activity (human LGR8 [4]): 1.5 nM
3 | B1 | 10 nM | 8.4 nM | 11.2 nM | 13.7 nM | 12.9 nM | 9.5 nM | 11.3 nM |  |  | EC50, inhibition of forskolin stimulated β-galactosidase expression (human GPCR135 [5]): ~10 nM; EC50, inhibition of forskolin stimulated β-galactosidase expression (human GPCR142 [6]): ~10 nM; IC50 (human LGR7 [11]): 15 nM; binding result (human LGR8 [15]): no binding
4 | B2 | 1 to 5 nM | 1.8 nM | 2.2 nM | 4.5 nM | 5.1 nM | 2.9 nM | 2.6 nM | > 1000 nM | > 1000 nM | 
5 | B3 |  | 2.2 nM | 2.9 nM | 2.5 nM | 2.3 nM | 2.3 nM | 3.5 nM | 258 nM | 475 nM | EC50, ligand stimulated β-galactosidase expression (human LGR8 [18]): ~300 nM; IC50 (human LGR8 [19]): 500 nM
6 | B4 | 1 to 5 nM | 1.1 nM | 1.4 nM | 1.1 nM | 1.5 nM | 1.2 nM | 1.8 nM | 575 nM | 615 nM | EC50, ligand stimulated β-galactosidase expression (human LGR8 [18]): ~600 nM
7 | B5 |  |  |  |  |  |  |  |  |  | EC50, induction of β-galactosidase activity (human LGR8 [18]): 0.16 nM
